Among the data in PMC3220268 are Kd and fold decrease in affinity against WT values, retold here.

For one assay, the target named is actin filaments (UniProt P68135). The experiment in a line: co-sedimentation; actin co-sedimentation (pelleting) of rArp2/3 complex with actin filaments, as described in ref. 46.
Assay [1] deals with gelsolin-capped actin filaments (UniProt P68135). The experiment in a line: pointed end capping assay (elongation from gelsolin-capped actin filaments); gelsolin-capped actin filaments (100 nM), 4 µM actin with pyrene-labeled actin; slowing of pointed end elongation by rArp2/3 complex.

By Kd is commonly meant the equilibrium constant for the complex coming apart. Read a low Kd as tighter binding. In turn, “recombinant Arp2/3 complex with ARPC4 R105A and R106A mutations (from UniProt P61158 1-418; P61160 1-394; O15143 1-372; O15144 1-300; O15145 1-178; P59998 1-168; O15511 1-151)” yielded a Kd with actin filaments of 1500 nM. For the substance “recombinant Arp2/3 complex with Arp2 T237A, T238A, and Y202A mutations (from UniProt P61158 1-418; P61160 1-394; O15143 1-372; O15144 1-300; O15145 1-178; P59998 1-168; O15511 1-151)”, the fold decrease in affinity against WT in assay [1] turned out to be 8 fold.
